Results from article PMC9060465 (2022).
Like-named read-outs stand apart in the source and are kept apart here. Where no end group is shown, it is not given here. [ ]: non-standard residue; d: D form. Aib = CC(C)(N)C(=O)O

T1: human GLP-1R expressed in HEK293 cells (human, UniProt P43220 24-463)
T1 chain: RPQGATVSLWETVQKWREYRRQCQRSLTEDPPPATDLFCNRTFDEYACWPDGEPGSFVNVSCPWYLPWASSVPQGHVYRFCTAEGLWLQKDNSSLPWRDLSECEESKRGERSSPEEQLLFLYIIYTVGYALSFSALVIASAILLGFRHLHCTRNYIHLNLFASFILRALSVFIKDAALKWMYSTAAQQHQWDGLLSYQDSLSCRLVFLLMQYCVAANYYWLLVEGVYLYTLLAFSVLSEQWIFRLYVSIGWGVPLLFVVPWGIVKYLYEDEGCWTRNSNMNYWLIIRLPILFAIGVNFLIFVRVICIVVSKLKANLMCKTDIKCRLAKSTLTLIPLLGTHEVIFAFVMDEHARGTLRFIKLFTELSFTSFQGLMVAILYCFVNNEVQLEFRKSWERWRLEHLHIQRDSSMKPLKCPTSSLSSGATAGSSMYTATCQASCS

T2: human GIPR expressed in HEK293 cells (human, UniProt P48546 22-466)
T2 chain: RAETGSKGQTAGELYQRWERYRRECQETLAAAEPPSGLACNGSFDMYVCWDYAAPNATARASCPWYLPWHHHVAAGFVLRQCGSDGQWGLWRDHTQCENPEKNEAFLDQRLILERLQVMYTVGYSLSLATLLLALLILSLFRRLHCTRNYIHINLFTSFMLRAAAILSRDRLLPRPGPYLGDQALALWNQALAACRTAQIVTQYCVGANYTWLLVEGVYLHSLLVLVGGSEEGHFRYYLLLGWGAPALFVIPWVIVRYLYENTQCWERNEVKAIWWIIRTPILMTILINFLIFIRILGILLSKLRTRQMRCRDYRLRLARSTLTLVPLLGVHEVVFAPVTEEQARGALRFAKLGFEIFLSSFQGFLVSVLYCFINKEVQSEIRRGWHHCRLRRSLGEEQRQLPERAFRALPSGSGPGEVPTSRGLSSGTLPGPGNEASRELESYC

T3: isolated extracellular domain (ECD) of human GLP-1R, amino acids 24 to 145 (human, UniProt P43220 24-145)
T3 chain: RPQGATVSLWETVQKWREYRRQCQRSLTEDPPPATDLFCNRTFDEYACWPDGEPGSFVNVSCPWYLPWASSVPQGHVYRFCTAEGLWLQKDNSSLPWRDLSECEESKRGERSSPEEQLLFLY


Legend:
[1] = molecular target: T1, human GLP-1R expressed in HEK293 cells; experiment: [125I]GLP-1 competition, cell membranes
[2] = molecular target: T2, human GIPR expressed in HEK293 cells; experiment: [125I]GIP competition, cell membranes
[3] = molecular target: T2, human GIPR expressed in HEK293 cells; experiment: [125I]GIP competition, cell membranes
[4] = molecular target: T3, isolated extracellular domain (ECD) of …; experiment: SPR; kinetic fit
[5] = molecular target: T1, human GLP-1R expressed in HEK293 cells; experiment: [125I]GLP-1 competition, cell membranes

Row | Binder | Ki [1] | Ki [2] | Ki [3] | Kd [4] | Ki [5]
1 | HAEGTFTSDYSI[Aib]LDKIAQKAFVQWLIAGGPSSGAPPPS (not fully specified (residue 2, C-terminus); ends and bridges not checked) | 0.599 nM | 0.416 nM | – | – | –
2 | YAEGTFTSDYSI[Aib]LDKIAQKAFVQWLIAGGPSSGAPPPS [tirzepatide analog lacking the lipid moiety (TZP^ΔC20)] | – | – | 0.0235 nM | 70.6 nM | 2.67 nM
3 | YAEGTFTSDYSIALDKIAQKAFVQWLIAGGPSSGAPPPS (not fully specified) [tirzepatide (LY3298176)] | – | – | 0.087 nM | – | –
4 | YAEGTFTSDVSSYLEGQAAKEFIAWLVKGR (not fully specified (C-terminus)) [GLP-1H7Y] | – | > 128 nM | – | – | –
